Assay results: paper PMC4490372, “Architecture of TFIIIC and its role in RNA polymerase III pre-initiation complex assembly” (Nature Communications, 2015)

Columns and labels:
Experiment in all cases: pull-down; 15 μg GST-tagged τ131 on Glutathione Sepharose 4B; 300 nM τ138 or Bdp1, or 1 μM Brf1–TBP; 50 mM Tris pH 7.5, 150 mM NaCl, 2 mM DTT, 0.1% Tween20; 4 °C, 4 h
Settings in all cases: both partners purified
[1] = molecular target: T1, GST-tagged τ131 (1–580), wild type (S. cerevisiae, UniProt P33339 1-580)
T1 construct: τ131 (Tfc4) of S. cerevisiae TFIIIC, residues 1-580 (extended N terminus and TPR array); also called GST-τ131 (1–580); longer τ131 protein; source: E. coli BL21 (DE3) Gold, purified (GST column, S200 SEC)
T1 sequence (looked up): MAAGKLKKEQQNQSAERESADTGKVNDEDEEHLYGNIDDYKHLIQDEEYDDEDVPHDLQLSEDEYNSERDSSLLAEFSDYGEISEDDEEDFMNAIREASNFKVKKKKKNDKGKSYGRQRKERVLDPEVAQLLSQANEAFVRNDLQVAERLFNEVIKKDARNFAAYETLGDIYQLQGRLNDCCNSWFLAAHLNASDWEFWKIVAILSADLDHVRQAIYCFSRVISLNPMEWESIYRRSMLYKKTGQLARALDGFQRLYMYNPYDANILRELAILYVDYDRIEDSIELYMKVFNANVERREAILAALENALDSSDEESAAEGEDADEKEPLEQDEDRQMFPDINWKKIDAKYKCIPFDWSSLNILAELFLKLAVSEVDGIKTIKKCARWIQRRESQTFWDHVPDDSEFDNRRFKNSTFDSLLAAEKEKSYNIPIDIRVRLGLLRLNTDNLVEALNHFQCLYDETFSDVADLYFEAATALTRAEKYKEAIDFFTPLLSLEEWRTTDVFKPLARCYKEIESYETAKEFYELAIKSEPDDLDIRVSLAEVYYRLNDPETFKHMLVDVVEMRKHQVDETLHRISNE

[2] = molecular target: T2, GST-tagged τ131 (1–580) D468K (S. cerevisiae, UniProt P33339 1-580, D468K)
T2 construct: τ131 (Tfc4) of S. cerevisiae TFIIIC, residues 1-580, point mutant; also called D468K mutant of τ131 (1–580); source: E. coli BL21 (DE3) Gold, purified (GST column, S200 SEC)
T2 sequence (looked up): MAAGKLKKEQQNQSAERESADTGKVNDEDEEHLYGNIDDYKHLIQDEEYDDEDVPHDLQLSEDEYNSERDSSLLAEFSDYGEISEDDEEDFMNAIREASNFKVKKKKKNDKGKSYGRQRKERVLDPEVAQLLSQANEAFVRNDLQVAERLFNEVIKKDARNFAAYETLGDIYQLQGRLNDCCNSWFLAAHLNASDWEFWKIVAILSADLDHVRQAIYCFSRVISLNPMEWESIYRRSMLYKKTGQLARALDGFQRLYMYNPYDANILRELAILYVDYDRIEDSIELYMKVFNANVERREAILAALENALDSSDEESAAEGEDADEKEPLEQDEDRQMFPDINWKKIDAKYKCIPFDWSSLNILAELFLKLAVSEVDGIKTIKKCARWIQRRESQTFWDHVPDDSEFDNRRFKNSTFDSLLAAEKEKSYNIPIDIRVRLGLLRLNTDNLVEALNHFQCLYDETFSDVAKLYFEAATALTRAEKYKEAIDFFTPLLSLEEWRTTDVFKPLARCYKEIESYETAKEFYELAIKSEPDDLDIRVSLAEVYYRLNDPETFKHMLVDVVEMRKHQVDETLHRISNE

[3] = molecular target: T3, GST-tagged τ131 (1–580) L469K (S. cerevisiae, UniProt P33339 1-580, L469K)
T3 construct: τ131 (Tfc4) of S. cerevisiae TFIIIC, residues 1-580, point mutant; also called L469K mutant of τ131 (1–580); source: E. coli BL21 (DE3) Gold, purified (GST column, S200 SEC)
T3 sequence (looked up): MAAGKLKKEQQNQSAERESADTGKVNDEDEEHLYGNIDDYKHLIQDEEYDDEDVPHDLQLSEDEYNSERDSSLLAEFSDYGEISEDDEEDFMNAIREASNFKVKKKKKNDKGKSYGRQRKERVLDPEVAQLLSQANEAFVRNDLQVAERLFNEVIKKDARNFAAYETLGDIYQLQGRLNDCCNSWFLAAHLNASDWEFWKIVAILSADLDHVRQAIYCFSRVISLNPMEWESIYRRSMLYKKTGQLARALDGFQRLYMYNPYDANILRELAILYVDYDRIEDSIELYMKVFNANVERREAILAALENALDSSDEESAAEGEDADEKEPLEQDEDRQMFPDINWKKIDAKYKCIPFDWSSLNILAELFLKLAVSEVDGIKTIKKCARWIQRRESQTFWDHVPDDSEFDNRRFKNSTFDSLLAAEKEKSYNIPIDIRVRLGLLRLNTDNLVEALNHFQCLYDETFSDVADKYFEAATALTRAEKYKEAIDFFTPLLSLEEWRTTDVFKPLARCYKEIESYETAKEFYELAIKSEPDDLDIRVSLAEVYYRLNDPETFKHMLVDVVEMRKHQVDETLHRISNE

binding result [1]: binds
binding result [2]: binds
binding result [3]: binds
B1: Brf1–TBP fusion protein Brf1 (1–382)-TBP (61–240)-Brf1 (439–596) (other, UniProt P29056 1-382, looked up)
chain: MPVCKNCHGTEFERDLSNANNDLVCKACGVVSEDNPIVSEVTFGETSAGAAVVQGSFIGAGQSHAAFGGSSALESREATLNNARRKLRAVSYALHIPEYITDAAFQWYKLALANNFVQGRRSQNVIASCLYVACRKEKTHHMLIDFSSRLQVSVYSIGATFLKMVKKLHITELPLADPSLFIQHFAEKLDLADKKIKVVKDAVKLAQRMSKDWMFEGRRPAGIAGACILLACRMNNLRRTHTEIVAVSHVAEETLQQRLNEFKNTKAAKLSVQKFRENDVEDGEARPPSFVKNRKKERKIKDSLDKEEMFQTSEEALNKNPILTQVLGEQELSSKEVLFYLKQFSERRARVVERIKATNGIDGENIYHEGSENETRKRKLSESGIVPTLQNIVATVTLGCRLDLKTVALHARNAEYNPKRFAAVIMRIREPKTTALIFASGKMVVTGAKSEDDSKLASRKYARIIQKIGFAAKFTDFKIQNIVGSCDVKFPIRLEGLAFSHGTFSSYEPELFPGLIYRMVKPKIVLLIFVSGKIVLTGAKQREEIYQAFEAIYPVLSEFRKMPRNLHLLPTTDTYLSKVSDDPDNLEDVDDEELNAHLLNEEASKLKERIWIGLNADFLLEQESKRLKQEADIATGNTSVKKKRTRRRNNTRSDEPTKTVDAAAAIGLMSDLQDKSGLHAALKAAEESGDFTTADSVKNMLQKASFSKKINYDAIDGLFR
notes: Brf1, subunit of TFIIIB, residues 1-382; TBP, subunit of TFIIIB, residues 61-240; Brf1, subunit of TFIIIB, residues 439-596; source: E. coli BL21 Star (DE3) pRARE, purified (Ni-NTA, HiTrap SP); not shown: His6, C-terminal, kept
